The values below are quoted from earlier work in paper PMC5593754.

This data set addresses Glu97 (UniProt position 97, WARMAEWLCTC). In words: UV-vis. The settings on record: unphotolyzed (dark) state, protonated Schiff base.

In the case of “Anion channelrhodopsin 1 (GtACR1) S97E mutant (Guillardia theta; S97E)”, the pKa entry is on record as “∼8”.
